Assay results published in patent US11370846B2, “Compositions and methods to regulate Renalase in the treatment of cancer” (Yale University, priority 2014, dated 2022).

Legend:
Type in all cases: cell-based, human
STAT3 [1] = assay: STAT3 phosphorylation in Panc1 cells by western blot; conditions: addition of RNLS
Source text: FIG. 27A through FIG. 27E are a series of images and charts showing the interaction between RNLS and STAT3, and the mechanistic model of inhibition by m28-RNLS. FIG. 27A is an image showing activation of STAT3 by RNLS in Panc1 cells; Panc1 cells in culture treated with either BSA or RNLS, and STAT3 phosphorylation assessed by western blot; p-Ser^727-STAT3: phosphorylation at serine 727, p-Y^705-STAT3: phosphorylation at tyrosine 705; representative study. FIG. 27B is a chart depicting the quantification of STAT3 phosphorylation with RNLS; signals normalized to total STAT3; n=3, *=P<0.05. […] FIG. 27D is a chart showing the quantification of STAT3 phosphorylation with m28-RNLS; signals normalized to GAPDH loading control; n=3, *=P<0.05. FIG. 27E depicts the proposed mechanistic model for antitumor activity of m28-RNLS.

STAT3 [2] = assay: STAT phosphorylation in HK-2 cells treated with RNLS
[3] = test system: melanoma cells (A375.S2, MeWo, SkMe15, and SkMe128); assay: Survival of serum-starved melanoma cells with rRNLS, WST-1; conditions: 30 ug/ml, 72 hrs, compared to BSA
Protocol: FIG. 18A and FIG. 18B are two charts showing that RNLS overexpression favors cancer cell survival.
For additional studies, cell viability was determined using WST-1 reagent (Roche Diagnostics, Indianapolis, Ind., USA) according to the manufacturers' instruction. Absorbances were read using a microplate reader (Power Waves XS, BioTek Instruments, Winooski, Vt., USA).

MiaPaCa2 cells = assay: FACS cell cycle analysis of MiaPaCa2 cells treated with rRNLS; conditions: 30 μg/ml, compared to BSA
Protocol: For cell cycle analysis, cultured cells were dissociated using 10 mM EDTA, fixed with ice-cold 70% ethanol, digested with RNAse A, and stained with propidium iodide. Propidium staining was detected using a BD FACSCalibur flow cytometer (BD Biosciences, San Jose, Calif., USA), and analyzed using CellQuest software.

B1: rRNLS: Recombinant human RNLS (renalase) (protein)
chain: ALLRRQTSGPLYLAVWDKAEDSGGRMTTACSPHNPQCTADLGAQYITCTPHYAKKHQRFYDELLAYGVLRPLSSPIEGMVMKEGDCNFVAPQGISSIIKHYLKESGAEVYFRHRVTQINLRDDKWEVSKQTGSPEQFDLIVLTMPVPEILQLQGDITTLISECQRQQLEAVSYSSRYALGLFYEAGTKIDVPWAGQYITSNPCIRFVSIDNKKRNIESSEIGPSLVIHTTVPFGVTYLEHSIEDVQELVFQQLENILPGLPQPIATKCQKWRHSQVTNAAANCPGQMTLHHKPFLACGGDGFTQSNFDGCITSALCVLEALKNYI
phosphorylated STAT3 (p-Ser727-STAT3 and p-Y705-STAT3) in Panc1 (STAT3 [1]): rapid increase
increase in STAT3 phosphorylation at serine 727 (p-Ser727-STAT3) (STAT3 [2]): 2 fold
increase in STAT3 phosphorylation at tyrosine 705 (p-Y705-STAT3) (STAT3 [2]): 4 fold
survival of serum-starved melanoma cells [3]: markedly increased the survival
cell cycle progression (MiaPaCa2 cells): no effect
